The values that follow come from paper PMC7043065 (Cell reports, 2020).

This experiment addresses C-X-C motif chemokine 12 (CXCL12) (mouse (endogenous in BM-MSC of C57BL/6 …, UniProt P40224 22-93)). In words: cross-linking + co-IP.

C-X-C motif chemokine 12 (CXCL12) (mouse, sequence (P40224 22-93): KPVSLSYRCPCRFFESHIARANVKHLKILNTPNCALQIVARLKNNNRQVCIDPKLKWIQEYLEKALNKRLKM

B1: chemokine ligand 2 (CCL2) (natural protein)
chain: not shown
Regarding B1, the “molar interaction ratio of CXCL12/CCL2” value was over 1.
